Measured values reported in article doi:10.1101/2021.04.29.441928.

Tests used:
Experiment in all cases: co-IP
CD4 R449A (mouse) = CD4 R449A (mouse) (UniProt P06332)
CD4 K452A (mouse) = CD4 K452A (mouse) (UniProt P06332)
CD4 R426A (mouse) = CD4 R426A (mouse) (UniProt P06332)
CD4 WT (mouse) = CD4 WT (mouse) (UniProt P06332)
CD4 Dbl (mouse) = CD4 Dbl (mouse) (UniProt P06332)

Sequence of Lck (P06240 whole entry): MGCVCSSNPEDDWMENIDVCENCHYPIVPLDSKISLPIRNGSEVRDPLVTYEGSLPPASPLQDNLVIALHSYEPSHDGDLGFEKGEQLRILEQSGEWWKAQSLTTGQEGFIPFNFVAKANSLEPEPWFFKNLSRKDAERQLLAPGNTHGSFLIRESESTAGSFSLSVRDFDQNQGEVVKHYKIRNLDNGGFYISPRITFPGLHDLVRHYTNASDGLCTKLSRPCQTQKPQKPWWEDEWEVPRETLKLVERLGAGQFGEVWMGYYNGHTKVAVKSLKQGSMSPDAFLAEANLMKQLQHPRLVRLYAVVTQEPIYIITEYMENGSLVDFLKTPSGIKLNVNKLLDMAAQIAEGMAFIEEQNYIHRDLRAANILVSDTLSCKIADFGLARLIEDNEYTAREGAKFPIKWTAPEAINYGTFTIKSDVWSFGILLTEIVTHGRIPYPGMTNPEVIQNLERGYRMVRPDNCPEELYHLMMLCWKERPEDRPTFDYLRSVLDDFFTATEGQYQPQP

total AUC of the raw Lck signal co-IP'd with CD4 (CD4 R449A (mouse)): 2640
total AUC of the raw Lck signal co-IP'd with CD4 (CD4 K452A (mouse)): 2380
total AUC of the raw Lck signal co-IP'd with CD4 (CD4 R426A (mouse)): 2920
total AUC of the raw Lck signal co-IP'd with CD4 (CD4 WT (mouse)): 2630
total AUC of the raw Lck signal co-IP'd with CD4 (CD4 Dbl (mouse)): 2160
Substance: Lck (from UniProt P06240 1-509) (enzyme)
